The target in the test is N-terminal His (six histadine)-tagged IRF5 (222-425) SEQ ID NO 22 (UniProt Q13568 222-425). The test is described as follows: TR-FRET. A general note: TR-FRET usually uses a lanthanide donor and a delayed reading to cut background.

Primed or numbered codes have the meaning given here. FITC′ = fluorescein isothiocyanate; Ahx = NCCCCCC(=O)O

N-terminal His (six histadine)-tagged IRF5 (222-425) SEQ ID NO 22, sequence (Q13568 other isoform, or with tags, fused parts or gaps): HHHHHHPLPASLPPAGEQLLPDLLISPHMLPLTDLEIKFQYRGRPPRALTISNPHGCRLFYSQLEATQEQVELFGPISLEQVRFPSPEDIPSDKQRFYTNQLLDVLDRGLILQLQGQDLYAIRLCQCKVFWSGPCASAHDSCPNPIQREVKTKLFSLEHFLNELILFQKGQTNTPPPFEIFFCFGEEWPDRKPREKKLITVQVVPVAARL

B1: FITC-Aha-IRLQISNPYLKFIPLKRAIWLIK-NH2 (SEQ ID NO: 16) (peptide)
peptide: {FITC′-Ahx}-IRLQISNPYLKFIPLKRAIWLIK-NH2
In general, Kd refers to the equilibrium constant for the complex coming apart. Low values mean higher affinity, high ones lower affinity. In turn, B1 showed a Kd of 930 nM.

B2: FITC-Aha-MIILIISFPKHKDWKVILVK-NH2 (SEQ ID NO: 17) (peptide)
peptide: {FITC′-Ahx}-MIILIISFPKHKDWKVILVK-NH2
With B2, binding was characterised by a dissociation constant (Kd) of 530 nM.
